Measurements taken from paper PMC13083842 (Communications Biology, 2026).
One block for each binder: values may come before it.

Tests used:
interleukin-6 (IL-6) = target: T1, interleukin-6 (IL-6) (human, UniProt P05231); experiment: SPR; IL-6 amine-coupled on a CM5 chip (Biacore T200); analytes in multi-cycle kinetics, 0.39 to 100 nM, 30 µL/min, 180 s association, 1200 s dissociation, HBS-N + 10 mM CaCl2; global fit, 1:1 model; where koff was below the detection limit KD was estimated from kon and the theoretical maximum koff; conditions: both partners purified
T1 construct: interleukin-6, human; A biotinylated IL-6 was used in the cell uptake assays; for SPR and ELISA the IL-6 was amine-coupled or coated
T1 sequence (P05231 30-212): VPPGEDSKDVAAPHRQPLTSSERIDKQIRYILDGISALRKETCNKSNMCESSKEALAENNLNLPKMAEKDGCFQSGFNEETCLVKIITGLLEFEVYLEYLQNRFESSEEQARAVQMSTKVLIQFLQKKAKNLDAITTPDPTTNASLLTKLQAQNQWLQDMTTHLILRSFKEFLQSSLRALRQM

[1] = target: T2, soluble IL-6 receptor (sIL-6R) (human (from the printed accession …, UniProt P08887)); experiment: SPR; IL-6R amine-coupled on a CM5 chip (Biacore T200); tocilizumab variants as analytes, multi-cycle kinetics, 0.39 to 100 nM; global fit, 1:1 model; conditions: both partners purified
T2 construct: interleukin-6 receptor (IL-6R), soluble variant, residues 20-355, UniProt P08887; Two versions were made: 1; C-terminal His9-Tag; 2; C-terminal Twin-Strep-Tag, 3xGS-Linker and TEV cleavage site; Only the ELISA on sASGPR (anti-His-HRP detection) tells that the His9 version was used; Strongly and heterogeneously glycosylated; also called wild-type sIL-6R; unmodified sIL-6R; source: Expi293F, …

B4: siltuximab-TGN 1:1 (antibody, V domains shown)
VH: EVQLVESGGKLLKPGGSLKLSCAASGFTFSSFAMSWFRQSPEKRLEWVAEISSGGSYTYYPDTVTGRFTISRDNAKNTLYLEMSSLRSEDTAMYYCARGLWGYYALDYWGQGTSVTVSS
VL: QIVLIQSPAIMSASPGEKVTMTCSASSSVSYMYWYQQKPGSSPRLLIYDTSNLASGVPVRFSGSGSGTSYSLTISRMEAEDAATYYCQQWSGYPYTFGGGTKLEIK
notes: as the heavy chain of m1; as the light chain of m1; Heterogeneous conjugate; See m1 for the DrugBank ids; also called TGN-modified siltuximab variant 1:1; source: HEK293T, transfected, purified (Protein A, SEC), then conjugated with Tris-GalNAc-PEG5-sulfo-NHS ester at 1:1; copies: 2 + 2
- Kd (interleukin-6 (IL-6)): < 0.045 nM
- koff (interleukin-6 (IL-6)): < 1e-05 s⁻¹

B5: siltuximab-TGN 1:10 (antibody, V domains shown)
VH: B4 VH
VL: B4 VL
notes: as the heavy chain of m1; as the light chain of m1; Heterogeneous conjugate; See m1 for the DrugBank ids; also called TGN-modified siltuximab variant 1:10; source: HEK293T, transfected, purified (Protein A, SEC), then conjugated with Tris-GalNAc-PEG5-sulfo-NHS ester at 1:10; copies: 2 + 2
- Kd (interleukin-6 (IL-6)): < 0.045 nM
- koff (interleukin-6 (IL-6)): < 1e-05 s⁻¹

B6: tocilizumab-TGN 1:25 (antibody, V domains shown)
VH: QVQLQESGPGLVRPSQTLSLTCTVSGYSITSDHAWSWVRQPPGRGLEWIGYISYSGITTYNPSLKSRVTMLRDTSKNQFSLRLSSVTAADTAVYYCARSLARTTAMDYWGQGSLVTVSS
VL: DIQMTQSPSSLSASVGDRVTITCRASQDISSYLNWYQQKPGKAPKLLIYYTSRLHSGVPSRFSGSGSGTDFTFTISSLQPEDIATYYCQQGNTLPYTFGQGTKVEIK
notes: as the heavy chain of m6; as the light chain of m6; Heterogeneous conjugate; See m6 for the DrugBank ids; also called the 1:25 variant; source: HEK293T, transfected, purified (Protein A, SEC), then conjugated with Tris-GalNAc-PEG5-sulfo-NHS ester at 1:25
- fold weaker affinity than wildtype tocilizumab [1]: ≤ 5 fold

The remaining lines, values ahead:

- Kd (interleukin-6 (IL-6)): < 0.045 nM
- koff (interleukin-6 (IL-6)): < 1e-05 s⁻¹
- kon (interleukin-6 (IL-6)): 445000 M⁻¹ s⁻¹
B1: siltuximab (antibody, V domains shown)
VH: B4 VH
VL: B4 VL
notes: heavy chain of siltuximab, chimeric (human-murine) anti-IL-6 antibody; light chain of siltuximab; Full-length IgG; also called wildtype siltuximab; unmodified siltuximab; source: HEK293T, transfected, purified from supernatant (Protein A, SEC); copies: 2 + 2

- Kd (interleukin-6 (IL-6)): < 0.045 nM
- koff (interleukin-6 (IL-6)): < 1e-05 s⁻¹
- kon (interleukin-6 (IL-6)): 221000 M⁻¹ s⁻¹
B2: siltuximab-TGN 1:25 (antibody, V domains shown)
VH: B4 VH
VL: B4 VL
notes: as the heavy chain of m1; as the light chain of m1; Heterogeneous conjugate; See m1 for the DrugBank ids; also called the 1:25 variant; source: HEK293T, transfected, purified (Protein A, SEC), then conjugated with Tris-GalNAc-PEG5-sulfo-NHS ester at 1:25; copies: 2 + 2

- Kd (interleukin-6 (IL-6)): < 0.045 nM
- koff (interleukin-6 (IL-6)): < 1e-05 s⁻¹
B3: siltuximab-TGN 1:5 (antibody, V domains shown)
VH: B4 VH
VL: B4 VL
notes: as the heavy chain of m1; as the light chain of m1; Heterogeneous conjugate; See m1 for the DrugBank ids; also called TGN-modified siltuximab variant 1:5; source: HEK293T, transfected, purified (Protein A, SEC), then conjugated with Tris-GalNAc-PEG5-sulfo-NHS ester at 1:5; copies: 2 + 2
